Our source for the attenuation of IL-4R activity against the control constructs (STAT6-luciferase) values is patent US20190000984A1.

Some results are limits rather than exact numbers.

The assay concerns the target IL-4R (interleukin-4 receptor) (UniProt P24394). As to the kind of experiment: cell-based or functional assay.

B1: anti-IL-4R:anti-CD63 conjugate (streptavidin-conjugated anti-IL-4R antibody combined 1:1 with biotinylated anti-CD63 antibody MEM-259) (protein, part only; not given: anti-CD63 antibody and constant regions, part only)
VH: EVQLVESGGGVVQPGRSLRLSCVASGFTFSDYGMHWVRQAPGKGLEWVAVIWYDGSIKYFRDSVKGRFTISRDNSKNTLYLQMNSLRVEDTAHYYCAKESSSWYFYHGLDVWGQGTMVTVSS
VL: EIVMTQSPLSLPVSPGEPASISCRSNQSLLHSNGNNYLAWYLQKPGQSPHLLIYLGSNRASGVPDRFSGSGSGTDFTLKISRVEAGDVGTYFCMQSLQAPPFTFGPGTKVEIKR
modifications: antibody conjugated to streptavidin (site not stated)
B1 had an attenuation of IL-4R activity against the control constructs (STAT6-luciferase) greater than 10%.
